Experimental data taken from the supplement of paper PMC12636428.

System: Saccharomyces cerevisiae
Assay: transcriptional activation domain activity (GFP:mCherry ratio, weighted mean of sorted bins, harmonized to initial dataset scale) (arbitrary fluorescence ratio units); higher = stronger transcriptional activation
Conditions: beta-estradiol 1 µM; induction time 4 h
In short: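 Each value is an activation activity: the read-weighted mean of bin median fluorescence, averaged across barcodes, then mapped linearly to the initial dataset scale. The tiles, fused to an estradiol-inducible synthetic transcription factor, sat at the yeast URA3 locus in GFP-reporter diploids. Cells spent 4 hours at 30 °C in SC with 1 uM beta-estradiol before sorting into 8 GFP:mCherry bins, and tiles below 50 reads were removed.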

| Sequence | transcriptional activation domain activity |
| --- | --- |
| KKAAAALNGEAADGEATAEGEGAPKREPRAKKPRTPRPRRAPGEEPAGEPSKN | 44900 |
| KKAEKQEGEDKEKEEKPKPSRGKKRKESEEPNGASAEGEEEPVAKKAKPASKA | 49000 |
| KKAKAGDEDEEGGADKASPKKGAKRGRKQVEDEDEDESEEVQPKAKRAKKAVV | 24800 |
| KKAKKGGDEAGAKGSGKPKKPAGEADGSVAAEGGAAKGKARKAASSEPKKGAK | 27900 |
| KKASSSAVGEGKKKSASKPRTSSAGGASVDGQPKKPKQSKKKAASGSKGGAGS | 28500 |
| KKDEEQTSSSTPSPPPQESAEKNEAKDEEKPAEQKAKKKPKKLQVRSAGTPAP | 7630 |
| KKEAAAAKKEPAKRKKTKADEEDKESAEGTESDEESKPKKKKAAPKKKGAATA | 20600 |
| KKEEEGEESEPEKLPKSTKRGRKKVEEEVKAEGEEEEEEAPVAKKQKPAANGS | < 6570 |
| KKEEVKQEPAAPTPAPAPAPTGASSDRGGRGQGRGRARGDSSRGGGGRAAAPP | 38000 |
| KKEEVKQEPTPAAAPEASTSDRGRGRGRGRGEGRGRGDGTRGRGRGGARPAGP | 34900 |
| KKEGEDGKGKRKVVVYVGNAKFVTQREEGRDAFSASLASFDAQESAHGRTTIY | 75600 |
| KKEKAEKNKQQSKGQGQGEGDKEQKKEGEGEGEGGKDARAKGEKDGKDEKGAK | 46400 |
| KKEKSPSEDEAEKPKSPKSPFAKLRATVKGKSPKTEKPAEEPKAEAAPEAKTE | 24100 |
| KKEPVYDSEGNEVKPTPRKRVKKEPATEEDGSESKSASKKRVKKEADAEGDSS | 17100 |
| KKERKKEEKEEKGEKVKGKGERYVSDQVEEERERRRKRRNAKRQEREEEREKR | 42900 |
| KKGGKAAKSADRPPSRSRLEEEYVFIDVVSSFLRAIRARVIHIRHGAIVLAHY | 64100 |
| KKGREDMGNERKGNDMEGREGEKRGRKGKREGGGKGGKGGEKQREGRTGERGR | 21800 |
| KKGRRGRRRNRRGRKEGESEKGRKGGKGKGRKGEEQRRVRIKKGSRGTGEGEK | < 6570 |
| KKGRRKENGEGGEEKGKGAGGRGEGEEAGRRSRIKGVGGKRRGAGRRRGRREG | 17100 |
| KKGTIMTIASPSTVRRNMYDWLPSLFYFMPNSILGMWFDMTLPKLFFFLFLSQ | 63400 |
| KKKAAAEEDDEDDDEKVPAKKPAKRGRKKAADDEADEPQPPAKKAKKSPAKKT | 55800 |

| Sequence | transcriptional activation domain activity |
| --- | --- |
| KKKEEGKKRKRKRGKGRGRREKEERRKRGKEKGRRKERGKGKKKKESWGWRKG | 42000 |
| KKKKRKKKTPSKGESEEKGDDEDDEDEKKQTPKANTGAKKTKATGKTDREKKE | 51500 |
| KKKRDNRREKPRKSRKGRSDDEIREGEEGESRRRKRKEGGGRARAATPQEENE | 32800 |
| KKKSKKRKEKKEKKRRSKSKKKGKKKRRSRSNSGSSSDSSSEDSSSSSSDSSD | 50500 |
| KKKSSGRKSGSKGVGRLGSGSEETDEDESSRGSGSEAGRSSKDKKGKSRSNVE | 39900 |
| KKKSSRKRDEEDKERSLRKHSRHHKSRRKRSRERSESPESSRHRHRHKKSSSS | 17600 |
| KKLHLESEEDAEYIVAKAIRDGVIEAQVNHERGEMTSRETGDVYSTNEPQAQL | < 6570 |
| KKLQNDILRPVDWIMYYYFASHIPITVLFDLQAIYPTNWVPQLLLDINAQYIN | 37500 |
| KKLTRGKGKKSKGKKARSNAKRSKGKGKVTKEDTSDEEDEEEGEEERGEEEEE | 12500 |
| KKNRHGKFAYSDRYNLSEYIIEQLSEYDDIDLVKPWHRKLMLLHPFVILWVFF | 60600 |
| KKPAAKAKAGPSKANGEAAANGKGEEKEQEKEEAPKEKFKAAKLADPAAPGSK | 31200 |
| KKPAAKKQKTAPAEKINTTDDSKKARGRPKKADSNGTAKAAQKKKEPKAAATA | 32900 |
| KKPPARLLAKKAPAAAAGGEEGSSKSAAKPAAPPVKKVVPAAAAAKPAKGGAP | 28400 |
| KKQEERKEGYRRKVEENKEKREGREKREKDEFWRREGKKRRYQEGDGAGAGAG | 38100 |
| KKREKKERSRRHRDDDGERRRRHRSRSRSRDRERRHRHRDRSRSRDRRRDDGR | 35200 |
| KKRGKRTTNGKESGRSSKKARAGSQPKPRTNARTANAAAEDDDDDDEEDDHEG | 46700 |
| KKRNAKRPKVESEGEDELADAKKEADDDEDESPKKVSKASSSPEAKVKQSSVS | 26200 |
| KKRRKKAKEGAERGKKKRKHTDDGAGVADGVDQRDSQRESDESSADEDGNSGK | 38300 |
| KKSDEKDDTKPKKKKAKHDDADKESKKKLKKASKEKKSKSTKSKKDTAENAIA | 42900 |
| KKSGTTSKDEKKEGDSDSKATPSSGESAAPSAANNEGGKKEEKSEEKKEEKEE | 41700 |
| KKSSTSSTAAPKKRTPAKKSTPAPTPSPSASPEPVKPKKTSSKKAAKPVAVAE | 25400 |

| Sequence | transcriptional activation domain activity |
| --- | --- |
| KKSVLQLLAWLMHYKLYPTRNYKAICNCLPKLFENPLWAEFCSKMADTMVKYN | 46300 |
| KLAKKEPAAAKPKSEKPKAEKKTTEKKPVAKKATTTKKPAAAKPKAAPKPKTA | 27000 |
| KLAKKEPKAAAKPKTEKAKVEKKPAAKKATTTKAKPAAPKAKAAAKPKAATTK | 23800 |
| KLEHEPGPEPKPEAEEKPKKARGRPKKAIPEGGYTPKKARGRPKKVLDPEAEV | 14000 |
| KLEYVSLGRIEIVACFDKYTMASKGIHMLLGCCFSKIKFVCLSQADYQAAVLL | 67100 |
| KLFFNLSILTLCAIMTLSVVVAFLFVTGCDPFYGYRGILFGFRILLTDIFSNM | 31400 |
| KLGAAGGGRGSERDKRRRGEGERGGGDAVARAGEGEGRGRGRRRRKRSAACAG | 39200 |
| KLGFQVLVQVILVIWYKPDKIPSAVNVDKEIKKGEPVDNKARVLVECVLDVFQ | 51700 |
| KLGLGPTYGIMLALLVSHGIVCCFKTSILARLNVYYVILNLGTLIALSVALLV | 50600 |
| KLGPTPQCLDGFFFFSLLALASLHPVSPCLLFFFFFLLWFPSSFFWPSVLQVQ | 62500 |
| KLGVCLLLILDSLHTTFCIYAMYWYLVINFGVFPELAMMHWSFEAQQMLNVLV | 37800 |
| KLHQQAKSDFDELQESIPHQVGFSTPQLTAQQLIENAIESGVVDLETLDLPPF | 112000 |
| KLIFIFFFFYFFSFFVLLLLLLFLLLLFLPLLMATSACMLGLMFDKLPFFSNI | 46300 |
| KLIKHNKNVRTWWKKDDQFWVPRGHIHVYFRTPIIGITVRAQLTASLFINLVH | 47300 |
| KLIYVRILGYLLHHMPSEAGLQQLVTEIVSFRTEEAFLKLGLLYFEHAIRLFR | 36800 |
| KLKEKNKKRKRGEEVSDDEEEGPKDDEPKEKKAKKEEEHGVWVGNLAFATSQD | 36700 |
| KLKSLVAIVWILDFVHLILICQAIYHYLITNWGTTQRFCSPPRFSICTLCLSL | 55200 |
| KLLCVGRPFRASSTEVVVTMALLSMLRHLPTTRWKDSLKLLAWVLEQYIYRFT | 51000 |
| KLLLVHGRWSYQRIADMHANFFYKNVIWTFGLFWYMPFNGFDATYLYHYTFIL | 58100 |
| KLLNYLQMDRAKVVSFTIFVFVWSYFRHYLNLVILWSVWTQYDLIPQFARRWV | 40000 |
| KLLRWYIYPCAYRLGTVCCLFLSEIYNERHRKLSYAVMEPDTWPIMFTDKLAR | 74900 |

| Sequence | transcriptional activation domain activity |
| --- | --- |
| KLRGYGFVCQMLQLPIVVLQRTKWVRGRETLNNVCFWASMILGLSLVRCLFPL | 50200 |
| KLRHRLEDEKEANFFRAIIHFTGLRLPQARSKPVNVVRGILLVLCQLVQFSGR | 57100 |
| KLRKKQHGSNKDTIPSSQSRDIANDYDRGSTDNNLVTTTSTSSIFHDEDLTFF | 44400 |
| KLSFRLLVLSSSEILVCFPVYPSFVGYDPIFSGFRVKLLIFLLSLWHLLLLFV | 42300 |
| KLTLADLAPSPMAYRLWMFISGLYSLVDPFVRPLVRTYFAACLRLLIRWVPGI | 59400 |
| KLWAKRRAIYGNVFGFPGGVAWAMLVARICQLYPNAVSATIVGKFFNILTKWN | 33200 |
| KLWAKRRAIYSNVMGFLGGVAWAMLTARVCQLYPNACAASIVNRFFRIMYQWN | 49800 |
| KLWKKPIIVVMAAMPIIMDGVGNLLIPYLHSFVLHSLLFCHKKVAFLMLLLIF | 59100 |
| KLYQLKLKIFLYWQRYSYLYAKRKHSTKHHTLLVWSLKVKKLYGILWCFLLLF | 36600 |
| KLYSLGHILHSFIFVFSFFHFLISFLHSGFLCPRLFMFSSSLLFYYFLVGFFF | 27700 |
| KLYYLAFYSGNILRRDLNLIIGVGKNWNLPAFWAPLLRYVTCPILAIIYSMAY | 63600 |
| KMEESKKRGTKRKSALASDSEEEEEVKPKPIAKPAKPAAKAESSVHVRKGVVL | 17700 |
| KMLLDHIKKFVITYTGGLVLACDISRYHEVIVQFKSVQVDEYFNVLKEICSLF | 53900 |
| KMSTNANNYTGAGNLHAAKPATSPTNVGTLHENLSSSHFMIPDVDQFNSFEDF | 30300 |
| KMVHRPLLWYFTVFLVDMYTALRLFRLGFRHYAPRTQTRSWFRVFPPRPFTWV | 71700 |
| KNASFNDADLLSSSYWIKAYNDHLFSVSESDETSPMNSELNDTKLIVPDFKST | 69100 |
| KNDCCFCYALGLFIRMDCFLRIFVCLCFDVGLYAIEFDLCSLLLACIHVHFSH | 36300 |
| KNDDRGDRGERRSRSRRRRHSVTGVDRESRAESKHRDPKHRKHRIAEAGAASA | 41500 |
| KNEKADKAEKTEKTEQQQSSGARRNRRGRGGNRGGEGGKESKEGGRPAAAAKT | 11200 |
| KNGWHIIGSSNNVVAYRLRVYQCMDLTTFFSLQAAFSDCERYFVASAIVLDKK | 38500 |
